Measured values from publication doi:10.1101/2020.10.29.360719, “Phase separation of the LINE-1 ORF1 protein is mediated by the N-terminus and coiled-coil domain” (bioRxiv, 2020).

T1: ORF1_(53-152) (coiled-coil domain of ORF1) (human, UniProt Q9UN81 53-152)
T1 construct: Non-labeled in the NMR experiments; also called full-length coiled-coil domain; trimeric coiled-coil domain; source: E. coli BL21STAR(DE3), purified (Ni-NTA, Sephacryl S-300 gel filtration)
T1 sequence (looked up): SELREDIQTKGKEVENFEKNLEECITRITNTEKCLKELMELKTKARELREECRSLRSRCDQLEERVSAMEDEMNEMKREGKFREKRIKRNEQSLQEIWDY


What was measured:
[1] = biological target: the molecule itself; assay: SEC; gel filtration, GE HiPrep 16/60 Sephacryl S-300 HR, 20 mM Tris pH 8.0, 1 M NaCl, 1 mM DTT; self-association (trimer)
[2] = biological target: T1, ORF1_(53-152) (coiled-coil domain of …); assay: NMR titration; 15N-1H HSQC and 15N relaxation of the 15N-enriched N-terminal construct with non-labeled coiled-coil construct added (equimolar, 700 uM each in Fig. 3C); 25 °C; 20 mM HEPES pH 7.25 or 20 mM MES pH 6.0, 200 mM NaCl, 1 mM DTT; details: both partners purified

Binder	stoichiometry N [1]	binding result [2]
full-length ORF1_(1-338) protein (LINE-1 ORF1 protein) (natural protein, human, UniProt Q9UN81 1-338, looked up, LINE-1 (L1) ORF1 protein, human, residues 1-338, 40 kDa; No tag removal is described; The histidine tag is only named in the legends for ORF1_(1-53); also called L1 ORF1 protein; wild-type ORF1; source: E. coli BL21STAR(DE3), purified (Ni-NTA, Sephacryl S-300 gel filtration)) MGKKQNRKTGNSKTQSASPPPKERSSSPATEQSWMENDFDELREEGFRRSNYSELREDIQTKGKEVENFEKNLEECITRITNTEKCLKELMELKTKARELREECRSLRSRCDQLEERVSAMEDEMNEMKREGKFREKRIKRNEQSLQEIWDYVKRPNLRLIGVPESDVENGTKLENTLQDIIQENFPNLARQANVQIQEIQRTPQRYSSRRATPRHIIVRFTKVEMKEKMLRAAREKGRVTLKGKPIRLTADLSAETLQARREWGPIFNILKEKNFQPRISYPAKLSFISEGEIKYFIDKQMLRDFVTTRPALKELLKEALNMERNNRYQPLQNHAKM	3	–
ORF1_(1-141) (domain or fragment, human, UniProt Q9UN81 1-141, looked up, LINE-1 ORF1 protein, human, residues 1-141 (N-terminus and coiled-coil domain lacking the C-terminal 12 residues); source: E. coli BL21STAR(DE3), purified (Ni-NTA, gel filtration)) MGKKQNRKTGNSKTQSASPPPKERSSSPATEQSWMENDFDELREEGFRRSNYSELREDIQTKGKEVENFEKNLEECITRITNTEKCLKELMELKTKARELREECRSLRSRCDQLEERVSAMEDEMNEMKREGKFREKRIKR	3	–
ORF1_(1-131) (domain or fragment, human, UniProt Q9UN81 1-131, looked up, LINE-1 ORF1 protein, human, residues 1-131 (N-terminus and coiled-coil domain lacking the C-terminal 22 residues); source: E. coli BL21STAR(DE3), purified (Ni-NTA, gel filtration)) MGKKQNRKTGNSKTQSASPPPKERSSSPATEQSWMENDFDELREEGFRRSNYSELREDIQTKGKEVENFEKNLEECITRITNTEKCLKELMELKTKARELREECRSLRSRCDQLEERVSAMEDEMNEMKRE	3	–
ORF1_(1-53) (disordered N-terminal region of ORF1) (domain or fragment, human, UniProt Q9UN81 1-53, looked up, LINE-1 ORF1 protein, human, residues 1-53; 15N (and for assignment 13C) isotope enriched for NMR; also called N-terminus; N-terminal region (1-53); source: E. coli BL21STAR(DE3), purified (Ni-NTA, heat 70°C, gel filtration); not shown: histidine tag, C-terminal, kept) MGKKQNRKTGNSKTQSASPPPKERSSSPATEQSWMENDFDELREEGFRRSNYS	–	binds
MGKKQNRKTGNSKTQSASPPPKERSSSPATEQSWMENDFDELREEG (domain or fragment, human, UniProt Q9UN81 1-46, looked up, LINE-1 ORF1 protein, human, residues 1-46; Observed by 15N-1H HSQC, so isotope enriched; also called truncated ORF1_(1-46) construct; source: E. coli BL21STAR(DE3), purified (Ni-NTA, gel filtration)) [ORF1_(1-46)]	–	binds
